Target: coatomer (COPI heptamer) (Mus musculus) (UniProt Q8CIE6)
Experiment: cryo-EM structure; cryo-electron tomography and subtomogram averaging of COPI-coated vesicles and buds from an in vitro budding reaction: liposomes with 3 mol % PI4P (0.23 mg/ml), GTPγS 0.5 mM, COPI 1.36 μM, Arf1 20 μM, ARNO 4 μM, GOLPH3 9 μM; 50 mM Hepes pH 7.2, 125 mM KOAc, 30 min at 37°C; 7.5 Å map, model by rigid body fitting of domains from AlphaFold 3 predictions

Sequence of Arf1 (P84077 whole entry, the tested form may be a part): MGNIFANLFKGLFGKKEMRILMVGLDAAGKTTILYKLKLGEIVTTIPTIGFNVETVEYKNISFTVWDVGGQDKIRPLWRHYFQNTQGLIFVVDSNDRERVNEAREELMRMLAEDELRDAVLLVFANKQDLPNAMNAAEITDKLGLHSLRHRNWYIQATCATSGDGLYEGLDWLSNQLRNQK

stoichiometry N (per COPI heptamer): 2
Substance: Arf1 (from UniProt P84077 1-181) (natural protein)

Reference: paper PMC12494035
